Experimental data as given in patent US20260273042A1.

Key:
[1] = biological target: BG505_SOSIP_D664_MD39_mC (BG505 SOSIP-MD39 or MD39) (HIV (strain BG505)); assay: SPR, monovalent interaction
[2] = biological target: BG505 SOSIP T332N gp140 (soluble trimer) (HIV (strain BG505)); assay: SPR, monovalent interaction
[3] = biological target: BG505 MD37; assay: SPR (ligand and analyte not given)
[4] = biological target: BG505 MD39C; assay: SPR (ligand and analyte not given)
[5] = biological target: BG505_SOSIP_D664_olio6_mC (HIV (strain BG505)); assay: SPR (ligand and analyte not given)
[6] = biological target: BG505-gp120 9MUTB (7MUT+N135R/Q328M) (HIV (strain BG505)); assay: SPR, monomeric gp120
[7] = biological target: BG505_SOSIP_D664_MD39_mC (BG505 SOSIP-MD39 or MD39) (HIV (strain BG505)); assay: SPR (ligand and analyte not given)
[8] = biological target: BG505_SOSIP.D664_JS_10mut_mC (SOSIP-10MUT) (HIV (strain BG505)); assay: ELISA, His-tagged trimer captured, mAb titrated [panel B]
[9] = biological target: BG505_SOSIP_D664_MD39_mC (BG505 SOSIP-MD39 or MD39) (HIV (strain BG505)); assay: as above
[10] = biological target: BG505 SOSIP MD39 E2p (HIV (strain BG505) fused to Bacillus stearothermophilus E2p); assay: SPR, captured particle, Fab analyte
[11] = biological target: BG505_SOSIP_MD39_2JD6 (HIV (strain BG505) fused to Pyrococcus furiosus ferritin); assay: SPR, captured particle, Fab analyte
[12] = biological target: BG505_MD39_CP1.2_GRSF7_qLoops1 (HIV (strain BG505)); assay: SPR, Fab analyte
[13] = biological target: CD4 on human CD4+ T cells (human) (UniProt P01730); assay: flow cytometry, human CD4+ T cells stained with trimer labelled with two fluorescent probes
[14] = biological target: BG505_SOSIP_D664_MD39_mC (BG505 SOSIP-MD39 or MD39) (HIV (strain BG505)); assay: SPR, IgG ligand, trimer analyte [panel A]
[15] = biological target: BG505_SOSIP_D664_olio6_mC (HIV (strain BG505)); assay: SPR, IgG ligand, trimer analyte [panel A]
[16] = biological target: BG505_SOSIP.D664_JS_10mut_mC (SOSIP-10MUT) (HIV (strain BG505)); assay: SPR, IgG ligand, trimer analyte [panel A]
[17] = biological target: BG505_SOSIP.D664_JS_5mut_mC (SOSIP-5MUT) (HIV (strain BG505)); assay: SPR, IgG ligand, trimer analyte [panel A]
[18] = biological target: BG505_SOSIP.D664_JS_3mut_mC (SOSIP-3MUT) (HIV (strain BG505)); assay: SPR, IgG ligand, trimer analyte [panel A]
[19] = biological target: BG505_SOSIP_D664_MD39_mC (BG505 SOSIP-MD39 or MD39) (HIV (strain BG505)); assay: SPR, trimer ligand, Fab analyte [panel A]
[20] = biological target: BG505_SOSIP.D664_JS_10mut_mC (SOSIP-10MUT) (HIV (strain BG505)); assay: SPR, trimer ligand, Fab analyte [panel A]
[21] = biological target: BG505_SOSIP.D664_JS_5mut_mC (SOSIP-5MUT) (HIV (strain BG505)); assay: SPR, trimer ligand, Fab analyte [panel A]
[22] = biological target: BG505_SOSIP_D664_MD39_mC (BG505 SOSIP-MD39 or MD39) (HIV (strain BG505)); assay: SPR, trimer ligand, Fab analyte [panel A]; remark: listed apart in the source
[23] = biological target: BG505_SOSIP.D664_JS_3mut_mC (SOSIP-3MUT) (HIV (strain BG505)); assay: SPR, trimer ligand, Fab analyte [panel A]
[24] = biological target: BG505 SOSIP T332N gp140 (soluble trimer) (HIV (strain BG505)); assay: SPR, trimer ligand, Fab analyte [panel A]
[25] = biological target: MD39-10MUT; assay: SPR, trimer ligand, Fab analyte [panel A]
[26] = biological target: BG505 SOSIP T332N gp140 (soluble trimer) (HIV (strain BG505)); assay: SPR, IgG ligand, trimer analyte [panel A]
[27] = biological target: BG505 SOSIP T332N gp140 (soluble trimer) (HIV (strain BG505)); assay: SPR, IgG ligand, trimer analyte [panel A]; remark: listed apart in the source
[28] = biological target: MD39-10MUT; assay: SPR, IgG ligand, trimer analyte [panel A]
[29] = biological target: BG505 SOSIP T332N gp140 (soluble trimer) (HIV (strain BG505)); assay: ELISA, His-tagged trimer captured, mAb titrated [panel B]
[30] = biological target: BG505 MD53; assay: SPR (ligand and analyte not given)
[31] = biological target: BG505 SOSIP T332N gp140 (soluble trimer) (HIV (strain BG505)); assay: SPR (ligand and analyte not given)
[32] = biological target: BG505_SOSIP_D664_olio6_mC (HIV (strain BG505)); assay: SPR, trimer ligand, Fab analyte [panel A]
[33] = biological target: BG505_SOSIP.D664_JS_10mut_mC (SOSIP-10MUT) (HIV (strain BG505)); assay: SPR, trimer ligand, Fab analyte (1-to-1 fit relatively poor) [panel A]
[34] = biological target: BG505_SOSIP_D664_MD39_mC (BG505 SOSIP-MD39 or MD39) (HIV (strain BG505)); assay: as above
[35] = biological target: BG505_SOSIP.D664_JS_3mut_mC (SOSIP-3MUT) (HIV (strain BG505)); assay: as above

Which Kd [1] does the source give for PGT128 (antibody) here?
The Kd was 12 nM.

And the Kd [2]?
The Kd was 8 nM.

What about the Kd [3] of the same substance?
Its Kd is 19 nM.

And the Kd [4]?
Its Kd is 14 nM.

And the Kd [5]?
The Kd was 11 nM.

With PGT121 (antibody) as the substance, how does the Kd [6] read?
Its Kd is 1.5 nM.

VRC01 (antibody) was tested. Which Kd [1] did it give?
Its Kd is 124 nM.

And the Kd [7]?
Its Kd is 124 nM.

PGT151 (antibody) was tested. Which Kd [1] did it give?
Its Kd is 11 nM.

And the EC50 (read off the curve) [8]?
Its EC50 (read off the curve) is 0.03 µg/mL.

And the EC50 (read off the curve) [9]?
The EC50 (read off the curve) was 0.03 µg/mL.

What about the Kd [7] of the same substance?
The Kd was 11 nM.

PGT145-Fab was tested. Which Kd [10] did it give?
Its Kd is 41 nM.

What about the Kd [11] of the same substance?
Its Kd is 49 nM.

And the Kd [12]?
The Kd was 26 nM.

Which results are given for 3BNC60 (antibody)?
Kd [3]: 189 nM; Kd [7]: 121 nM; Kd [4]: 144 nM; Kd [5]: 119 nM

How did the percentage of cells in the double-positive population [13] turn out when “BG505 SOSIP T332N gp140 (soluble trimer) (other; other documents disagree on this pair)” was run?
Its percentage of cells in the double-positive population is 99.1%.

PGT145 (antibody) was tested. Which Kd [14] did it give?
The Kd was 20 nM.

And the Kd [15]?
Its Kd is 31 nM.

And the Kd [1]?
The Kd was 60 nM.

And the Kd [16]?
Its Kd is 3 nM.

And the Kd [17]?
Its Kd is 3 nM.

What about the Kd [18] of the same substance?
The Kd was 3 nM.

And the Kd [7]?
The Kd was 20 nM.

What about the Kd [5] of the same substance?
Its Kd is 31 nM.

What does the source list for PGT128 Fab?
Kd [19]: 11 nM; Kd [20]: 3 nM; Kd [21]: 5 nM; Kd [22]: 12 nM; Kd [23]: 3 nM; Kd [24]: 8 nM; Kd [25]: 3 nM; Kd [10]: 6 nM; Kd [11]: 5 nM

Which results are given for VRC01-Fab?
Kd [19]: 124 nM; Kd [20]: 115 nM; Kd [21]: 195 nM; Kd [23]: 101 nM; Kd [25]: 142 nM; Kd [10]: < 1 nM; Kd [11]: < 1 nM

What does the source list for PGDM1400 (antibody)?
Kd [14]: 12 nM; Kd [26]: 6 nM; Kd [1]: 36 nM; Kd [2]: 5 nM; Kd [16]: 1 nM; Kd [17]: 1 nM; Kd [18]: 1 nM; Kd [27]: 2 nM; Kd [28]: 6 nM; EC50 (read off the curve) [8]: 0.04 µg/mL; EC50 (read off the curve) [9]: 0.04 µg/mL; EC50 (read off the curve) [29]: 0.04 µg/mL; Kd [7]: 12 nM; Kd [30]: 11 nM; Kd [31]: 6 nM

Which results are given for 3BNC60 Fab?
Kd [19]: 189 nM; Kd [32]: 119 nM

With PGT151 Fab as the substance, how does the Kd [19] read?
Its Kd is 11 nM.

And the Kd [10]?
The Kd was 25 nM.

What about the Kd [11] of the same substance?
Its Kd is 49 nM.

And the Kd [33]?
Its Kd is 20 nM.

And the Kd [34]?
The Kd was 11 nM.

And the Kd [35]?
Its Kd is 9 nM.
